Measured values from IntAct's records for PubMed 32017888.

B1: Ras-related protein Rab-8A (Homo sapiens), P61006 (parent)
chain: MAKTYDYLFKLLLIGDSGVGKTCVLFRFSEDAFNSTFISTIGIDFKIRTIELDGKRIKLQIWDTAGQERFRTITTAYYRGAMGIMLVYDITNEKSFDNIRNWIRNIEEHASADVEKMILGNKCDVNDKRQVSKERGEKLALDYGIKFMETSAKANINVENAFFTLARDIKAKMDKKLEGNSPQGSNQGVKITPDQQKRSSFFRCVLL
partner: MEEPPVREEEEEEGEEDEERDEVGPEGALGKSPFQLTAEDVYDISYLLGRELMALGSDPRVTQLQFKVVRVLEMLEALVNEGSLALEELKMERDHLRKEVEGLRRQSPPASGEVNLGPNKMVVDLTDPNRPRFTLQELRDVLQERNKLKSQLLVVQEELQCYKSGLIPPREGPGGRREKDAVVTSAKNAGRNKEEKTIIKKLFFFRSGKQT

Variants of: B1
Details: with ripl2_human RILPL2, Q969X0

Row | Variant | effect of a mutation on the interaction
1 | MAKTYDYLFKLLLIGDSGVGKTCVLFRFSEDAFNSTFISTIGINFKIRTIELDGKRIKLQIWDTAGQERFRTITTAYYRGAMGIMLVYDITNEKSFDNIRNWIRNIEEHASADVEKMILGNKCDVNDKRQVSKERGEKLALDYGIKFMETSAKANINVENAFFTLARDIKAKMDKKLEGNSPQGSNQGVKITPDQQKRSSFFRCVLL [D44N] | disrupting interaction strength
2 | MAKTYDYLFKLLLIGDSGVGKTCVLFRFSEDAFNSTFISTIGIKFKIRTIELDGKRIKLQIWDTAGQERFRTITTAYYRGAMGIMLVYDITNEKSFDNIRNWIRNIEEHASADVEKMILGNKCDVNDKRQVSKERGEKLALDYGIKFMETSAKANINVENAFFTLARDIKAKMDKKLEGNSPQGSNQGVKITPDQQKRSSFFRCVLL [D44K] | disrupting interaction strength
3 | MAKTYDYLFKLLLIGDSGVGKTCVLFRFSEDAFNSTFISTIGIDFKIRTIELDGKRIALQIWDTAGQERFRTITTAYYRGAMGIMLVYDITNEKSFDNIRNWIRNIEEHASADVEKMILGNKCDVNDKRQVSKERGEKLALDYGIKFMETSAKANINVENAFFTLARDIKAKMDKKLEGNSPQGSNQGVKITPDQQKRSSFFRCVLL [K58A] | with no effect
4 | MAKTYDYLFKLLLIGDSGVGKTCVLFRFSEDAFNSTFISTIGIDFKIRTIELDGKRIQLQIWDTAGQERFRTITTAYYRGAMGIMLVYDITNEKSFDNIRNWIRNIEEHASADVEKMILGNKCDVNDKRQVSKERGEKLALDYGIKFMETSAKANINVENAFFTLARDIKAKMDKKLEGNSPQGSNQGVKITPDQQKRSSFFRCVLL [K58Q] | disrupting interaction strength
5 | MAKTYDYLFKLLLIGDSGVGKTCVLFRFSEDAFNSTFISTIGIDFKIRTIELDGKRIELQIWDTAGQERFRTITTAYYRGAMGIMLVYDITNEKSFDNIRNWIRNIEEHASADVEKMILGNKCDVNDKRQVSKERGEKLALDYGIKFMETSAKANINVENAFFTLARDIKAKMDKKLEGNSPQGSNQGVKITPDQQKRSSFFRCVLL [K58E] | disrupting interaction strength

Variants of: B1
Details: with ripl2_human RILPL2, Q969X0
Remark: another data set of the same source

Row | Variant | effect of a mutation on the interaction
6 | MAKTYDYLFKLLLIGDSGVGKNCVLFRFSEDAFNSTFISTIGIDFKIRTIELDGKRIKLQIWDTAGQERFRTITTAYYRGAMGIMLVYDITNEKSFDNIRNWIRNIEEHASADVEKMILGNKCDVNDKRQVSKERGEKLALDYGIKFMETSAKANINVENAFFTLARDIKAKMDKKLEGNSPQGSNQGVKITPDQQKRSSFFRCVLL [T22N] | disrupting interaction strength
